The source of these data is publication PMC3794996.

The target in assay [1] is A/bat/Peru/10 H18 HA ectodomain (hemagglutinin of influenza virus A/flat-faced bat/Peru/033/2010, H18N11) (influenza A virus A/flat-faced bat/Peru/033/2010 (H18N11)). Put plainly: crystal structure.
Assay [2] deals with A/bat/Peru/10 N11 NAL ectodomain (neuraminidase-like protein of influenza virus A/flat-faced bat/Peru/033/2010, H18N11) (influenza A virus A/flat-faced bat/Peru/033/2010 (H18N11)). The experiment in a line: crystal structure.
In assay [3] the target is A/bat/Peru/10 N11 NAL protein with ectodomain plus stalk region (influenza A virus A/flat-faced bat/Peru/033/2010 (H18N11)).

Regarding “A/bat/Peru/10 H18 HA ectodomain (hemagglutinin of influenza virus A/flat-faced bat/Peru/033/2010, H18N11) (domain or fragment)”, the stoichiometry N in assay [1] was 3.
“A/bat/Peru/10 N11 NAL ectodomain (neuraminidase-like protein of influenza virus A/flat-faced bat/Peru/033/2010, H18N11) (domain or fragment)” yielded a stoichiometry N in assay [2] of 4.
With “A/bat/Peru/10 N11 NAL protein with ectodomain plus stalk region (domain or fragment)”, in assay [3], the stoichiometry N came out at 4.
